The record followed here is article PMC10570035.

Like-named read-outs stand apart in the source and are kept apart here.

Assay [1] has as its target 40S ribosomal subunit (rabbit reticulocyte lysate) (rabbit (endogenous in rabbit reticulocyte lysate)) (UniProt G1TM55).
For assay [2] the target is unchanged. The source holds these as a separate data set.
For assay [3] the target is unchanged. This is another data set of the same source.
Assay [4] has the same target. This is another data set of the same source.

Regarding “tag-less eIF2A (from UniProt Q9BY44-1 1-585) (natural protein)”, the in vitro translation of nLuc mRNA in 20% RRL, titration of recombinant protein (0-3.4 μM); IC50 of inhibition of translation in assay [1] was determined as 130 nM.

With “MBP-eIF2A-His6 (from UniProt Q9BY44-1 1-585) (natural protein)”, the in vitro translation of nLuc mRNA in 20% RRL, titration of recombinant protein (0-3.4 μM); IC50 of inhibition of translation in assay [2] turned out to be 190 nM.

As for “MBP-eIF2A-His6-FLAG (from UniProt Q9BY44-1 1-585) (natural protein)”, the in vitro translation of nLuc mRNA in 20% RRL, titration of recombinant protein (0-3.4 μM); IC50 of inhibition of translation in assay [3] was found to be 370 nM. In assay [4], this substance came in with an in vitro translation of CrPV IGR IRES nLuc mRNA in RRL, titration (0-3.4 μM); IC50 of inhibition of translation of 630 nM; an in vitro translation of EMCV IRES nLuc mRNA in RRL, titration (0-3.4 μM); IC50 of inhibition of translation of 690 nM; an in vitro translation of HCV IRES nLuc mRNA in RRL, titration (0-3.4 μM); IC50 of inhibition of translation of 490 nM; an in vitro translation of PV IRES nLuc mRNA in RRL, titration (0-3.4 μM); IC50 of inhibition of translation of 840 nM.
